According to paper doi:10.1101/2025.10.18.683246 (bioRxiv, 2025):

Experiments:
[1] = target: the molecule itself; experiment: SDS-PAGE with or without DTT and Western blot
[2] = target: T1, N-terminal cleavage product of CLCA1 (NTP) (human, UniProt A8K7I4 22-694, N-glycans at Asn503 and Asn585); experiment: cryo-EM structure
T1 sequence (looked up): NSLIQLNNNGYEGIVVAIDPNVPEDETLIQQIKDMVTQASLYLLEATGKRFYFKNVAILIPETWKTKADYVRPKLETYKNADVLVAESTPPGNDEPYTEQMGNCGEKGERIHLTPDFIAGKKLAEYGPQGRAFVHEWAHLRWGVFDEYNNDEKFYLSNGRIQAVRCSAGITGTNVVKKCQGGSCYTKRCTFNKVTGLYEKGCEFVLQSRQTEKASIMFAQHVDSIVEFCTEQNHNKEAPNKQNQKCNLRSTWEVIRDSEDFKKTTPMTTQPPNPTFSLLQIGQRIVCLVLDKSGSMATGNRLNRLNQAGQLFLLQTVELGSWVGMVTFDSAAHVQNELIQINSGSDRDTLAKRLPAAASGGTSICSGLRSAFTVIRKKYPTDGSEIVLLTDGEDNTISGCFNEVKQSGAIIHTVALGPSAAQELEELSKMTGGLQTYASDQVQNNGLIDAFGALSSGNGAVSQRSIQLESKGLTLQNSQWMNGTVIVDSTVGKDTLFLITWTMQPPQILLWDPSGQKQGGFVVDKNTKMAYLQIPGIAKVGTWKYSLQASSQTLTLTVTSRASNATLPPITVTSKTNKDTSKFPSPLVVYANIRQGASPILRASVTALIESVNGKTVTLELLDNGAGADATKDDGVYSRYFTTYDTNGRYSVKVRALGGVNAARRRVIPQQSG

B1: C-terminal cleavage product of CLCA1 (CTP) (domain or fragment, human, UniProt A8K7I4 695-914, looked up)
chain: ALYIPGWIENDEIQWNPPRPEINKDDVQHKQVCFSRTSSGGSFVASDVPNAPIPDLFPPGQITDLKAEIHGGSLINLTWTAPGDDYDHGTAHKYIIRISTSILDLRDKFNESLQVNTTALIPKEANSEEVFLFKPENITFENGTDLFIAIQAVDKVDLKSEISNIARVSLFIPPQTPPETPSPDETSAPCPNIHINSTIPGIHILKIMWKWIGELQLSIA
modifications: N-glycans at Asn770, Asn804, Asn810, Asn831 and Asn836
B1: binds [1]; binds [2].
